The record followed here is publication PMC4832192.

In this experiment the target is response regulator PhoP of Mycobacterium tuberculosis (M. tuberculosis) (UniProt P71814). In words: crystal structure.

For the substance “response regulator PhoP of Mycobacterium tuberculosis (from UniProt P71814 1-247) (natural protein)”, the stoichiometry N amounted to 2.

One may read the stoichiometry N as a count of units in the complex or per binding partner.
